According to PMC7735993, “Role of Arabidopsis Splicing factor SF1 in Temperature-Responsive Alternative Splicing of FLM pre-mRNA”:

B1: FLM BP2 (ssRNA)
RNA: UUCUAAUAUUCUUCUGGAUGCGGUUUUUGGUGUUAU
B2: FLM BP1 (ssRNA)
RNA: UUCUAAUGCAUUUUUGUUUUAUCU

Target: His-AtSF1(1-562) (Arabidopsis thaliana, UniProt Q9LU44 1-562)
Assay: EMSA; 23 C; unlabeled self competitor (10-200x) reduces shift; LightShift Chemiluminescent RNA EMSA kit, 23 C, 30 min, 8% native PAGE; buffer, salt and pH not stated
Conditions: protein: recombinant; tags: His; label: 3' biotin

Chain of His-AtSF1(1-562) (Q9LU44 1-562): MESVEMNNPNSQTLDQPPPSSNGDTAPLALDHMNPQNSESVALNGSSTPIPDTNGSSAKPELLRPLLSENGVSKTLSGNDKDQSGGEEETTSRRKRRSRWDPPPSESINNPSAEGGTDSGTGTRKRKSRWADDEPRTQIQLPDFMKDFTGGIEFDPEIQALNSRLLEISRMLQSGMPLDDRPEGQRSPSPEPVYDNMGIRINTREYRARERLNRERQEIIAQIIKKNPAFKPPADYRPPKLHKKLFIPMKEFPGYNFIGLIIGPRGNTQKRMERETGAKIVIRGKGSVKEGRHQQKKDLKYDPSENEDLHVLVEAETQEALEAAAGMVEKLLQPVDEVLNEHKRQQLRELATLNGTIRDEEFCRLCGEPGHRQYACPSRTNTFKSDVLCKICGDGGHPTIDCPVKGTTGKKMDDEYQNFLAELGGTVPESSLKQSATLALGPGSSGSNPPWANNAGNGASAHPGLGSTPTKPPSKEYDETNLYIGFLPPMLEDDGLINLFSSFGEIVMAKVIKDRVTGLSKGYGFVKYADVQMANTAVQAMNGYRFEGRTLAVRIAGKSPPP

| Binder | binding result |
| --- | --- |
| B1 | binds |
| B2 | binds |
